The results in this text go back to patent publication US20150322414A1 (UNITED KINGDOM RESEARCH AND INNOVATION, published 2015).

Changes are numbered by the printed parent chain. Names and notes keep the numbering of the source.

Assay [1] has as its target Wild-type human Tie2 ectodomain (residues 1-442) surface expression construct on DT40 cells (human) (UniProt P09619). The assay is described as follows: flow cytometry, ligand titrated on DT40 cells displaying wild-type Tie2 ectodomain; apparent Kd.
Assay [2] has as its target T1, Angiopoietin-2 (human, UniProt O15123 19-496, limits assumed).
T1 construct: also called Ang2; biotinylated Ang2
T1 sequence (looked up): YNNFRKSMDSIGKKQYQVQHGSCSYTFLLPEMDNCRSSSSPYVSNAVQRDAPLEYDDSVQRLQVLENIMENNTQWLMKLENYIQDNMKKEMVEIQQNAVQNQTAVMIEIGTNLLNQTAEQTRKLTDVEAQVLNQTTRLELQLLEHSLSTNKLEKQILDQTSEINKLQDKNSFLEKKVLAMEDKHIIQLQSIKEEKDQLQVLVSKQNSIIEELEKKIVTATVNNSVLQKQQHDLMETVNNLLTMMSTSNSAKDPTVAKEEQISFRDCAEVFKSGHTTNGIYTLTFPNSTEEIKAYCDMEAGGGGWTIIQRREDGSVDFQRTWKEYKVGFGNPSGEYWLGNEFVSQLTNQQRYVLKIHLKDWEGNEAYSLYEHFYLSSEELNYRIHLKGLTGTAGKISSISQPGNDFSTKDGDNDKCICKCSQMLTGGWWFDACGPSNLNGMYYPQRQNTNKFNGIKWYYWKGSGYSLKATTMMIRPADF
The assay is described as follows: SPR (ForteBio Octet), ectodomain-Fc immobilised; wild-type ectodomain. On the procedure: (§1) Surface plasmon resonance was performed using a ForteBio Octet instrument (Pall Life Sciences). Fusion proteins were immobilised at 5 μg/ml on sensors and kinetic binding assays perfoinied as detailed by the manufacturer.
On the technique in general: In BLI a coated tip is dipped into the sample, and binding shifts an interference pattern.

Assay [3] has as its target T1, Angiopoietin-2. Kind of assay: SPR as named in the filing, panel headed 'Binding of R3 and R3 I161G binding to Ang2', concentrations not given. How it is done:
as §1

Assay [4] deals with T2, Angiopoietin-1 (human, UniProt Q15389 20-498, limits assumed).
T2 construct: also called Ang1; His6-tagged Ang1
T2 sequence (looked up): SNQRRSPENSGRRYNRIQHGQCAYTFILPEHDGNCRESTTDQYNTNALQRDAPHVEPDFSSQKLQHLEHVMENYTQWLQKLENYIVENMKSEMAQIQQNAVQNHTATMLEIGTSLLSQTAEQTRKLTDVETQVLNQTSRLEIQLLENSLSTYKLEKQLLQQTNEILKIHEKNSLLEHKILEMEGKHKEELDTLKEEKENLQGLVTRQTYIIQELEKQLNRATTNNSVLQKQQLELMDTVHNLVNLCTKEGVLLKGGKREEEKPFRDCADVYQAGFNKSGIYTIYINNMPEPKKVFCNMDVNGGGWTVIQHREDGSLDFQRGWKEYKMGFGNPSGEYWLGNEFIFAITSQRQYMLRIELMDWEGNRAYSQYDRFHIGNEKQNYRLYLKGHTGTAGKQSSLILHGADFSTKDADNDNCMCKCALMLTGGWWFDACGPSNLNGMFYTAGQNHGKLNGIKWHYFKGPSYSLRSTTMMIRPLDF
Kind of assay: SPR as named in the filing, panel headed 'Binding of Wt and R3 I161G mutant to Ang1', concentrations not given. On the procedure:
as §1

Assay [5] addresses T1, Angiopoietin-2. The assay is described as follows: SPR (ForteBio Octet), ectodomain-Fc immobilised; evolved (R3) ectodomain. On the procedure: as §1
Assay [6] addresses T2, Angiopoietin-1. Kind of assay: SPR as named in the filing (ForteBio Octet), ectodomain-Fc immobilised on the sensor, Ang1 in solution, concentrations not given. How it is done: as §1

Chain of Wild-type human Tie2 ectodomain (residues 1-442) surface expression construct on DT40 cells (human) (P09619 514-562 limits assumed, form in doubt): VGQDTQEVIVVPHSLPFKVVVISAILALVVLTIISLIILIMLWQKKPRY

With “Angiopoietin-1 (from UniProt Q15389 20-498) (ligand)”, the Kd in assay [1] was 0.7 nM.

B1: Wild-type Tie2 ectodomain (1-442)-Fc fusion protein (Fc fusion)
chain (part 1 of 2): AMDLILINSLPLVSDAETSLTCIASGWRPHEPITIGRDFEALMNQHQDPLEVTQDVTREWAKKVVWKREKASKINGAYFCEGRVRGEAIRIRTMKMRQQASFLPATLTMTVDKGDNVNISFKKVLIKEEDAVIYKNGSFIHSVPRHEVPDILEVHLPHAQPQDAGVYSARYIGGNLFTSAFTRLIVRRCEAQKWGPECNHLCTACMNNGVCHEDTGECICPPGFMGRTCEKACELHTFGRTCKERCSGQEGCKSYVFCLPDPYGCSCATGWKGLQCNEACHPGFYGPDCKLRCSCNNGEMCDRFQGCLCSPGWQGLQCEREGIQRMTPKIVDLPDHIEVNSGKFNPICKASGWPLPTNEEMTLVKPDGTVLHPKDFNHTDHFSVAIFTIHRILPPDSGVWVCSVNTVAGMVEKPFNISVK
chain (part 2 of 2): HHHHHH
notes: Secreted from HEK293 cells, about 80 kDa, purified on Ni-NTA; also called wild-type ectodomain; Wt; not shown: human Fc tag
In assay [2], B1 displayed a Kd of 4.1 nM.

B2: R3 I161G mutant Tie2 ectodomain (Glycine at 161, deleted at R167 and H168) (Fc fusion)
chain: AMDLILINSLPLVSDAETSLTCIASGWRPHEPITIGRDFEALMNQHQDPLEVTQDVTREWAKKVVWKREKASKINGAYFCEGRVRGEAIRIRTMKMRQQASFLPATLTMTVDKGDNVNISFKKVLIKEEDAVIYKNGSGIHSVPEVPDILEVHLPHAQPQDAGVYSARYIGGNLFTSAFTRLIVRRCEAQKWGPECNHLCTACMNNGVCHEDTGECICPPGFMGRTCEKACELHTFGRTCKERCSGQEGCKSYVFCLPDPYGCSCATGWKGLQCNEACHPGFYGPDCKLRCSCNNGEMCDRFQGCLCSPGWQGLQCEREGIQRMTPKIVDLPDHIEVNSGKFNPICKASGWPLPTNEEMTLVKPDGTVLHPKDFNHTDHFSVAIFTIHRILPPDSGVWVCSVNTVAGMVEKPFNISVK
notes: also called new mutant; improved Ang2 ligand-trap; not shown: the other soluble ectodomains carried a human Fc tag and His6
Turning to B2, the binding result in assay [3] is on record as “binds”; in assay [4], “no binding”.

B3: Evolved (R3) Tie2 ectodomain-Fc fusion protein (F161I, ΔR167, ΔH168) (Fc fusion)
chain (part 1 of 2): B2 chain with G139I
chain (part 2 of 2): HHHHHH
notes: also called R3 ectodomain; evolved ectodomain; not shown: human Fc tag
Regarding B3, the Kd in assay [5] turned out to be 2.4 nM. The binding result in assay [6] was “no binding”.
